Results from US20210032351A1 (XDCEXPLORER SHANGHAI, published 2021).
Where a chain is given by its changes, count along the chain named. Ends that are not written are not given here. * marks the point of attachment. Biotin = O=C1N[C@H]2[C@H](CS[C@H]2CCCCC(=O)*)N1

How the values were obtained:
[1] = molecular target: T1, human EGFRvIII-hFc protein (human, UniProt P00533 25-645); test: ELISA, coated EGFRvIII-hFc, antibody 1 nM
T1 construct: extracellular domain; made in HEK293 cells, purified on protein A; also called immunogen A; hFc-tagged EGFRvIII protein; not shown: human IgG Fc fragment (hFc) of the pCpC vector
How it was run: (§1)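 Binding of purified EGFRvIII antibody was measured on plates coated overnight at 4° C with 1.0 μg/mL EGFRvIII-hFc. After BSA blocking, antibody and then an HRP-conjugated secondary were each incubated 2 h at 37° C, and signal was taken as A450 nm.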

[2] = molecular target: T1, human EGFRvIII-hFc protein; test: ELISA, coated EGFRvIII-hFc, antibody 10 nM
How it was run: as §1

[3] = molecular target: T1, human EGFRvIII-hFc protein; test: ELISA, coated EGFRvIII-hFc, antibody 0.1 nM
How it was run: as §1

[4] = molecular target: T1, human EGFRvIII-hFc protein; test: ELISA, coated EGFRvIII-hFc, antibody 100 nM
How it was run: as §1

[5] = molecular target: T1, human EGFRvIII-hFc protein; test: ELISA, coated EGFRvIII-hFc, antibody 0.01 nM
How it was run: as §1

[6] = molecular target: T1, human EGFRvIII-hFc protein; test: ELISA, coated EGFRvIII-hFc, antibody 0.001 nM
How it was run: as §1

[7] = molecular target: T1, human EGFRvIII-hFc protein; test: ELISA, coated EGFRvIII-hFc, antibody 0.0001 nM
How it was run: as §1

[8] = molecular target: T1, human EGFRvIII-hFc protein; test: ELISA, plate coated with human EGFRvIII-hFc, HRP secondary antibody, absorbance at 450 nm
Method: The purified immunogen A (EGFRvIII-hFc) obtained in example 1 (for the preparation method, see step (I) in example 1) is diluted with PBS to a final concentration of 1.0 μg/mL, and then added to a 96-well ELISA plate at 100 μl/well. The plate is sealed with a plastic film and incubated at 4° C. overnight. The next day, the plate is washed twice with a plate washing solution [PBS+0.01% (v/v) Tween20], and added with a blocking solution [PBS+0.01% (v/v) Tween20+1% (w/w) BSA] for blocking 2 hours at room temperature. The blocking solution is discarded, and the purified EGFRvIII antibody obtained in example 2 is added at 100 μl/well. The plate is incubated for 2 hours at 37° C., and then washed 3 times with the plate washing solution [PBS+0.01% (v/v) Tween20]. The plate is added with an HRP (horseradish peroxidase) labeled secondary antibody (purchased from Sigma), incubated at 37° C. for 2 hours, and then washed 3 times with the plate washing solution [PBS+0.01% (v/v) Tween20]. The plate is added with 100 μl of TMB substrate/well, incubated for 30 minutes at room temperature, and then added with 100 μl of stopping solution (1.0N HCl)/well. A450 nm value is read using an ELISA plate reader (SpectraMax 384plus, purchased from Molecular Device), and the results are shown in FIG. 6 and table 10.

[9] = molecular target: T2, human EGFRvIII protein, full length, on transfected cells (human, UniProt P00533 25-1210); test: FACS on CHOK-EGFRvIII cells
T2 construct: whole, on cells; stably transfected CHO-K1, U87MG and HEK293(F) cells; also called hEGFRvIII; mutant EGFRvIII protein

pep02 = molecular target: T3, pep02; test: peptide dot matrix ELISA
T3 peptide: EEKKGNYVVTDHGSCVK(Biotin)

pep08 = molecular target: T4, pep08 (cysteine pairing not given here); test: peptide dot matrix ELISA
T4 peptide: YVVTDHGSCVRACGADK(Biotin)

pep11 = molecular target: T5, pep11 (cysteine pairing not given here); test: peptide dot matrix ELISA
T5 peptide: TDHGSCVRACGADSYEK(Biotin)

pep16 = molecular target: T6, pep16 (cysteine pairing not given here); test: peptide dot matrix ELISA
T6 peptide: CVRACGADSYEMEEDGK(Biotin)

pep17 = molecular target: T7, pep17; test: peptide dot matrix ELISA
T7 peptide: VRACGADSYEMEEDGVK(Biotin)

pep18 = molecular target: T8, pep18; test: peptide dot matrix ELISA
T8 peptide: RACGADSYEMEEDGVRK(Biotin)

pep23 = molecular target: T9, pep23 (cysteine pairing not given here); test: peptide dot matrix ELISA
T9 peptide: DSYEMEEDGVRKCKKCK(Biotin)

pep24 = molecular target: T10, pep24 (cysteine pairing not given here); test: peptide dot matrix ELISA
T10 peptide: SYEMEEDGVRKCKKCEK(Biotin)

pep28 = molecular target: T11, pep28 (cysteine pairing not given here); test: peptide dot matrix ELISA
T11 peptide: EEDGVRKCKKCEGPCRK(Biotin)

pep31 = molecular target: T12, pep31 (cysteine pairing not given here); test: peptide dot matrix ELISA
T12 peptide: GVRKCKKCEGPCRKVCK(Biotin)

pep32 = molecular target: T13, pep32 (cysteine pairing not given here); test: peptide dot matrix ELISA
T13 peptide: VRKCKKCEGPCRKVCNK(Biotin)

pep33 = molecular target: T14, pep33 (cysteine pairing not given here); test: peptide dot matrix ELISA
T14 peptide: RKCKKCEGPCRKVCNGK(Biotin)

pep34 = molecular target: T15, pep34 (cysteine pairing not given here); test: peptide dot matrix ELISA
T15 peptide: KCKKCEGPCRKVCNGIK(Biotin)

pep35 = molecular target: T16, pep35 (cysteine pairing not given here); test: peptide dot matrix ELISA
T16 peptide: CKKCEGPCRKVCNGIGK(Biotin)

B1: Murine anti-43H6 (antibody, V domains shown)
VH: INAEYAGGPGLVKPSQSLSLTCTVTDYSITSDYAWNWIRQFPGNKLEWMGYISYSGNTNYNPSLKSRISITRDTSKNQFFLQLNSVTTEDTATYYCARLGRGFAYWGQGTLVTVSA
VL: DILMTQSPSSMSVSLGDTVSITCHASQDINSNIGWLQQKPGTSFKGLIYHGRNLEDGVPSRFSGSGSGEDYSLTISSLESEDFADYYCVQYAHFPPTFGAGTKLELK
notes: murine hybridoma antibody; also called 43H6A1
Q: How did the OD450 nm [1] turn out when B1 was run?
A: 3.86

Q: What about the OD450 nm [2] of the same binder?
A: 3.87

Q: And the OD450 nm [3]?
A: 1.39

Q: And the OD450 nm [4]?
A: 3.85

Q: And the OD450 nm [5]?
A: 0.25

Q: What about the OD450 nm [6] of the same binder?
A: 0.11

Q: What about the OD450 nm [7] of the same binder?
A: 0.09

Q: And the “EC50 (read off the curve)” value [8]?
A: ~0.02 nM

B2: c75G7C6-4 (antibody, human IgG1, V domains shown)
VH: EVQLQQSGPELVKPGASVKIPCKASGYTFTDYNMDWVKQSHGKSLEWIGDINPNNGDTIYNQKFKGKATLTVDKSSSTAYMELRSLTSEDTAVYYCARGDYSGYYPVYYAMDYWGQGTSVTVSS
VL: ENVLTQSPAIMSASPGEKVTMTCRASSSVSSSYLHWYQQKSGASPKLWIFSTSNLAAGVPARFSGSGSGTSYSLTVSSVEAEDAATYYCQQYSGYPLTFGAGTKLELK
notes: chimeric, human IgG1 / kappa; DG of heavy chain CDR3 mutated to SG; also called DG/SG mutant
Q: B2 was tested. Which “fold decrease in binding ability compared to the wild-type chimeric antibody c75G7C6” value [9] did it give?
A: 2.5 fold

B3: Chimeric antibody 75G7 (antibody, V domains shown)
VH: B2 VH with S102D
VL: B2 VL
notes: also called c75G7C6
Q: With B3 as the binder, how does the ELISA signal (pep02) read?
A: 0.05

Q: What about the ELISA signal (pep08) of the same binder?
A: 0.05

Q: And the ELISA signal (pep11)?
A: 0.08

Q: What about the ELISA signal (pep16) of the same binder?
A: 0.05

Q: And the ELISA signal (pep17)?
A: 0.05

Q: And the ELISA signal (pep18)?
A: 0.05

Q: What about the ELISA signal (pep23) of the same binder?
A: 0.05

Q: And the ELISA signal (pep24)?
A: 0.05

Q: And the ELISA signal (pep28)?
A: 0.06

Q: And the ELISA signal (pep31)?
A: 0.06

Q: And the ELISA signal (pep32)?
A: 0.06

Q: And the ELISA signal (pep33)?
A: 0.07

Q: What about the ELISA signal (pep34) of the same binder?
A: 0.06

Q: What about the ELISA signal (pep35) of the same binder?
A: 0.07
